Measured values from paper PMC7181197.

Tests used:
GFP-G3BP1(WT) [1] = target: T1, GFP-G3BP1(WT) (UniProt Q13283 1-466); test: EMSA
GFP-G3BP1(S149A) = GFP-G3BP1(S149A) (UniProt Q13283 1-466, S149A); test: EMSA
[2] = target: GFP-G3BP1(WT);mCherry-Caprin-1 (human?;human?, UniProt Q13283;Q14444 1-466;1-709, |); test: EMSA
GFP-G3BP1(WT) [3] = target: T1, GFP-G3BP1(WT); test: analytical size exclusion chromatography

T1 sequence (Q13283 whole entry): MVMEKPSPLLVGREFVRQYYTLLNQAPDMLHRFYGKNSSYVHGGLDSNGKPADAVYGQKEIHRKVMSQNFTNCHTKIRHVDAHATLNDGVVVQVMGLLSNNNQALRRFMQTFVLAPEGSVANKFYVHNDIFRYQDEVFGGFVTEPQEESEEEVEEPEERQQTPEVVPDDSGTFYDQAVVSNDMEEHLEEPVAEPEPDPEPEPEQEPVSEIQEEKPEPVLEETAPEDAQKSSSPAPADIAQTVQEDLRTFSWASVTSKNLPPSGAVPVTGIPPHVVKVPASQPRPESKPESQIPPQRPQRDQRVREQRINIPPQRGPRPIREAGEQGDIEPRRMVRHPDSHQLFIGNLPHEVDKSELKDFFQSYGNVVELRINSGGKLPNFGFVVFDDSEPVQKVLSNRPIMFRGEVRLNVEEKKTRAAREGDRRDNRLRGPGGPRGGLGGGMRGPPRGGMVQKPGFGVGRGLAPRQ
Chain of GFP-G3BP1(WT);mCherry-Caprin-1 (Q13283 whole entry, chain 1 of 2): as the sequence (Q13283 whole entry) above
Chain of GFP-G3BP1(WT);mCherry-Caprin-1 (Q14444 whole entry, chain 2 of 2): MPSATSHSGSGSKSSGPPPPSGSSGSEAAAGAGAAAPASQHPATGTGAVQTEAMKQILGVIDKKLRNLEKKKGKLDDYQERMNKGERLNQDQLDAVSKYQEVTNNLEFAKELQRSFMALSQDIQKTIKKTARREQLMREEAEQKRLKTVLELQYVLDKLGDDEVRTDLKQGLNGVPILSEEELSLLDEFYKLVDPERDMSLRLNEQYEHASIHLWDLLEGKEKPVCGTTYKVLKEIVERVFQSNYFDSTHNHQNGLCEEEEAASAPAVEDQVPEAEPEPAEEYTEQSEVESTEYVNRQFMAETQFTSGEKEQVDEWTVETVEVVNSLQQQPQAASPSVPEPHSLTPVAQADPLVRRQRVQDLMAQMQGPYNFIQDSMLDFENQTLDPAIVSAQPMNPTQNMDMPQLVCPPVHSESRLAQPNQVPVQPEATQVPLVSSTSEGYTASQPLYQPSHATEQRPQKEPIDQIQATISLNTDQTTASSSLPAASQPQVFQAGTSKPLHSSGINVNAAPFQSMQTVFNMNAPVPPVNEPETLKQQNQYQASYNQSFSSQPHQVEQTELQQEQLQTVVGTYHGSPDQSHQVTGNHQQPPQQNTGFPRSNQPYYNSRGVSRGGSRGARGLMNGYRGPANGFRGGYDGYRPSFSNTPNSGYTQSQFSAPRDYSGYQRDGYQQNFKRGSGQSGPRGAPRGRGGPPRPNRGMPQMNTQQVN
Chain of GFP-G3BP1(S149A) (Q13283 whole entry S149A): as the sequence (Q13283 whole entry) above, with S149A counted along it

B1: A(60)-Cy5 RNA (ssRNA)
RNA: AAAAAAAAAAAAAAAAAAAAAAAAAAAAAAAAAAAAAAAAAAAAAAAAAAAAAAAAAAAA
modifications: 3' pCp-Cy5 ligated (adds one 3' C)
Question: B1 was tested. Which Kd (GFP-G3BP1(WT) [1]) did it give?
Answer: ~2000 nM

Question: What about the Kd (GFP-G3BP1(S149A)) of the same binder?
Answer: ~1900 nM

Question: Does B1 bind [2]?
Answer: binds

B2: A(60) RNA unlabeled (ssRNA)
RNA: B1 RNA
Question: Does B2 bind (GFP-G3BP1(WT) [3])?
Answer: binds
